The series concerns the molecule itself. Description: ELISA; two-site sandwich ELISA with the same mAb (30D12 or 4F2) as coated capture (5 ug/ml) and as biotinylated detector (1 ug/ml); recombinant hANKRD1 at 20 ng/ml; self-pairing read as dimer.

B1: recombinant human ankyrin repeat domain 1 (hANKRD1; OriGene Technologies) (natural protein)
chain: not shown
notes: human ankyrin repeat domain 1 (ANKRD1), full-length recombinant protein, N-terminal His-tagged, OriGene Technologies; expected mass 43 kDa; The preparation holds monomer (43 kDa) and dimer (86 kDa) on non-reducing SDS-PAGE; also called recombinant hANKRD1; source: bought: OriGene Technologies (bacterially derived recombinant preparation)
Consider B1, for which the binding result was “binds”.

The record behind these values is article PMC8024308, “Epitope-directed monoclonal antibody production using a mixed antigen cocktail facilitates antibody characterization and validation” (Communications Biology, 2021).
